This experiment concerns the target MST-Red-labeled human MIF (human) (UniProt P14174). The experiment can be described thus: MST; Monolith NT.115, 25 °C; MST-Red-MIF at fixed concentration (312 nM with CXCL4L1, 456 nM with CXCL4) with serial dilutions of the chemokine; 10 mM Tris-HCl, pH 8.0, 0.01% BSA; both in solution.

Sequence of MST-Red-labeled human MIF (human) (P14174 2-115): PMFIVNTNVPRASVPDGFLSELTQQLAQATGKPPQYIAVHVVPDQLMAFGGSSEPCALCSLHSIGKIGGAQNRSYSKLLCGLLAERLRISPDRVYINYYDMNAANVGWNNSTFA

“recombinant human CXCL4 (PF4), Peprotech (from UniProt P02776 32-101) (natural protein)” came in with a Kd of 2000 nM.

For orientation: Kd means the constant that tells how readily two partners part at equilibrium. Read a low Kd as a tighter complex.

Source of the values: article PMC9468113.
